Assays:
[1] = substrate: C/C(=C\CC[C@@H](C)[C@H]1CC[C@H]2[C@@H]3CCC4=CC(=O)C=C[C@]4(C)[C@H]3CC[C@]12C)CO; test: UPLC assay of 26-OH-DDO dehydrogenation to DDO-26-al; type: biochemical, Sterolibacterium denitrificans; conditions: 5 mM K3[Fe(CN)6] as electron acceptor, 50 mM MOPS/KOH pH 7.0, 6% HPCD, 30 °C, anaerobic, enriched enzyme
[2] = substrate: CC(C)=CCC[C@@H](C)[C@H]1CC[C@H]2[C@@H]3CCC4=CC(=O)C=C[C@]4(C)[C@H]3CC[C@]12C; test: UPLC assay of DDO hydroxylation to 26-OH-DDO; type: biochemical, Sterolibacterium denitrificans; conditions: 5 mM K3[Fe(CN)6] as electron acceptor, 50 mM MOPS/KOH pH 7.0, 6% HPCD, 30 °C, anaerobic, enriched enzyme

B1: S26DH1 (desmost-1,4-dien-3-one (DDO) hydroxylase; DH5) (Sterolibacterium denitrificans) (protein)
chain: PLQHFKGTTASGRFDLGPRTTPKLGNWQDLYRQRWTWDKVAKGSHGWANCRSACEWDLYVKDGVVVREEQSATYEASEPGIPDFNPRGCQKGACYTEVMYGPSRTTVPLKRVGPRGSGKWEKISWEQALREIAVKTVDAAEKWGTDTIYQDLGPNFDFGASTAGRFKFQFMAGGIFADNWAEIGDLNVGASITVGAAHLGGSADEWFLSDFIVVWMMNPSVTQIPDAHFLYEARYNGTELCVIDPQYSATAIHADQWLPLESGTDAALGLAVARYLLDTGAIDLPYIREQTDLPLLARLDTGRFLRESDLKAGGDEDQLYMWHPQKNAAVPAPGCLKNTTRSLKLDFEPPIDGQWKIKLANGEEVVVVPVGAMLKEHLDPWTFEHAAQVTHLHIDQIRKFAEGWAKAERPMVLSSWGSNRYVHSDLMNRTKMLLLMLKGALGKKGAGYQATGWVDLDGFGNAMQMEKSGMTGRLAVMLNAMPPKELFNAIVDIIKKRKTENDVALEGENNYLRNKLCTSDVVEVNLKSEGYRAALSKEQEGLYPRELSDYYDEAHEKGWAPGLPRKNTPKIFFSGGSNLLRRNNLPQYLKAHIWDQMDCIVDVNPKYSYTGTQADYILPAAGWYEKTGIKYTMSYIPYLHYCDAAVPPLAESKGEWEIYWLLTREMENYAKEKNQPILDGCGRGTIDMKTIHQRYTNQGDLGQHDQDKVTEEILRSESTKGMTVEGLRQTGIAKYTATGKNVQATALNNPDWKGEGVLTTLTRFTVHKEPWPTYSGRISSFIDHPWFIEGHEQFATHKDSPKAGGDYPFIFVSCHARWSIHSTWRDTPMMLRLQRGEPLVYLNPTDAAKIGVKDFEYVEIYNNYGSIRMRLKVTAMVRPGVAYYYHAWEPHQFPNHESYKNLIPGIVQPLHYAGGYGHINHALNRFQPGSAVQDTRIGIKPWTGQATGVKPVVVTAEEAAIAERANQAI
notes: alpha-beta-gamma complex, Mo-cofactor/FeS/heme b; produced in Thauera aromatica K172 with delta-chaperone (SdhD, delta4); enriched by three columns; with Steroid C26 dehydrogenase 1 beta subunit (FeS electron transfer subunit); Steroid C26 dehydrogenase 1 gamma subunit (heme b subunit)
B1 showed a Km [1] of 83 ± 12 µM and a Km [2] of 123 ± 25 µM.
